From the supplement of paper PMC10724198
± gives the standard deviation of the averaged measurements.

Tested on: Saccharomyces cerevisiae
Experiment: protein stability index of tFT-peptide fusion (C-terminal peptide) (PSI (0-1 scale)); higher = more stable (slower turnover)
Conditions: temperature: 30 C
Procedure: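 MPS profiling in S. cerevisiae of the yeast C-terminome library: the last 12 aa of each annotated ORF are fused to the C-terminus of a sfGFP-mCherry timer, after a GGGS linker. Cells are FACS-sorted into 8 mCherry/sfGFP bins and deep-sequenced. PSI runs from 0 (unstable) to 1 (stable); wild type and das1Δ backgrounds, two technical replicates each.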

[1] = genetic background: das1 deletion

Sequence | protein stability index [1] | protein stability index (genetic background: wild type)
AAVKLSQAKSKL [FOX2 C-terminal 12 aa] | 0.823 ± 0.019 | 0.752 ± 0.014
WYNPSNQTYKSK [YLR222C-A C-terminal 12 aa] | 0.719 ± 0.038 | 0.727 ± 0.071
PPVPEVPQEYTQ [TCB3 C-terminal 12 aa] | 0.722 ± 0.014 | 0.709 ± 0.041
KPPKNKYKVVRR [SEC65 C-terminal 12 aa] | 0.714 ± 0.03 | 0.681 ± 0.0014
YSLYRSRSKEAF [SAP190 C-terminal 12 aa] | 0.714 ± 0.048 | 0.692 ± 0.0071
ADMTKEFERESS [GLN1 C-terminal 12 aa] | 0.724 ± 0.018 | 0.701 ± 0.038
FIFYSILPTNVI [YPR123C C-terminal 12 aa] | 0.594 ± 0.013 | 0.645 ± 0.029
PEYDQVKQNNKE [YLR041W C-terminal 12 aa] | 0.691 ± 0.023 | 0.676 ± 0.03
FVKVIDYTSNGW [PBY1 C-terminal 12 aa] | 0.676 ± 0.0086 | 0.685 ± 0.015
IHKENKEFYLIL [YGL118C C-terminal 12 aa] | 0.703 ± 0.015 | 0.6731 ± 0.00094
GWLQDKHFEKYL [YOR338W C-terminal 12 aa] | 0.705 ± 0.022 | 0.447 ± 0.03
VWNTFYKLGKRV [TMT1 C-terminal 12 aa] | 0.7048 ± 0.0066 | 0.6583 ± 0.0029
YAVSELEGPMLD [CSC1 C-terminal 12 aa] | 0.7 ± 0.016 | 0.6479 ± 0.0011
KILVFDKNLMNR [YLR154W-E C-terminal 12 aa] | 0.699 ± 0.0098 | 0.688 ± 0.019
IWCAPTVDARPI [NIT1 C-terminal 12 aa] | 0.7229 ± 0.0014 | 0.6998 ± 0.0015
MGCIKGTVKTKY [ABZ2 C-terminal 12 aa] | 0.668 ± 0.039 | 0.756 ± 0.14
DKKLEEQLRDLV [MTC3 C-terminal 12 aa] | 0.6866 ± 0.0029 | 0.689 ± 0.052
TTDNVTVMVVFL [PTC1 C-terminal 12 aa] | 0.489 ± 0.0077 | 0.5071 ± 0.0035
SPFIPKKRKPRS [SEN1 C-terminal 12 aa] | 0.6983 ± 0.0065 | 0.704 ± 0.036
NLKLKFNENIME [DIT2 C-terminal 12 aa] | 0.695 ± 0.033 | 0.639 ± 0.0087
HGNWSRVVTDLN [BAT2 C-terminal 12 aa] | 0.6869 ± 0.0056 | 0.722 ± 0.1

Sequence | protein stability index [1] | protein stability index (genetic background: wild type)
VYTSKTRYRFAV [YHR210C C-terminal 12 aa] | 0.7137 ± 0.0024 | 0.578 ± 0.012
SSTTALDALNKE [TGL1 C-terminal 12 aa] | 0.696 ± 0.0083 | 0.684 ± 0.048
LTTSVLCCVVFT [CNE1 C-terminal 12 aa] | 0.348 ± 0.0076 | 0.364 ± 0.0028
TQEMENTKLAES [GIS1 C-terminal 12 aa] | 0.692 ± 0.01 | 0.757 ± 0.0079
WKKFLKFSKGSD [HXT17 C-terminal 12 aa] | 0.696 ± 0.0084 | 0.703 ± 0.099
NYESVEVPAANN [YML018C C-terminal 12 aa] | 0.682 ± 0.0077 | 0.7097 ± 0.0019
RSTAQRGGYSAV [ATG27 C-terminal 12 aa] | 0.708 ± 0.0086 | 0.679 ± 0.025
GDYTVKQPEATK [AIM9 C-terminal 12 aa] | 0.703 ± 0.013 | 0.672 ± 0.029
VVVCRLHFSLPV [YKL111C C-terminal 12 aa] | 0.562 ± 0.0059 | 0.57 ± 0.012
PTCETTIDIDRI [ZRG17 C-terminal 12 aa] | 0.687 ± 0.0087 | 0.65 ± 0.0076
KAASLSLKSTKY [PRP5 C-terminal 12 aa] | 0.71161 ± 0.00019 | 0.673 ± 0.013
TNQASPHHIFRG [ORA1 C-terminal 12 aa] | 0.702 ± 0.016 | 0.752 ± 0.038
EELLNQPPEEQI [GPX1 C-terminal 12 aa] | 0.712 ± 0.027 | 0.766 ± 0.093
ALCICCTMDMLF [YBR016W C-terminal 12 aa] | 0.6355 ± 0.0054 | 0.645 ± 0.048
NGSDNVTPGGRL [STE50 C-terminal 12 aa] | 0.708 ± 0.014 | 0.685 ± 0.022
SHPSFKQLLIQK [MLO1 C-terminal 12 aa] | 0.677 ± 0.031 | 0.73 ± 0.025
VDGFNDALQLSK [HEM14 C-terminal 12 aa] | 0.685 ± 0.022 | 0.708 ± 0.026
FAFVVVKQEFIH [BYE1 C-terminal 12 aa] | 0.521 ± 0.015 | 0.519 ± 0.0072
DEEREDDNYVPQ [CBC2 C-terminal 12 aa] | 0.689 ± 0.028 | 0.671 ± 0.022
TESENDALDDLL [TLG2 C-terminal 12 aa] | 0.714 ± 0.013 | 0.707 ± 0.0078
